Assay results as given in patent US20170052184A1 (published 2017).
Ends that are not written are not given here.

Assays:
Assay in all cases: EIA; Ab 7.813 ng/mL captured on anti-mouse Fc; bt-peptide 500 ng/mL
[1] = biological target: T1, C113T109N biotin labeled HCV core peptide (hepatitis C virus, also: biotin labeled, position not given here)
T1 peptide: RGSRPSWGPND

[2] = biological target: T2, C113WT biotin labeled HCV core peptide (hepatitis C virus, also: biotin labeled, position not given here)
T2 peptide: RGSRPSWGPTD

[3] = biological target: T3, WT1STHV biotin labeled HCV core peptide (hepatitis C virus, biotin labeled)
T3 peptide: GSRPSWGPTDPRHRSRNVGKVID

[4] = biological target: Mut6T110S biotin labeled HCV core peptide (hepatitis C virus)
[5] = biological target: T4, Mut1T110N biotin labeled HCV core peptide (hepatitis C virus, biotin labeled)
T4 peptide: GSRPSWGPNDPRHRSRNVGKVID

B1: HCV Neo4 monoclonal antibody (antibody, V domains shown)
VH: QIQLKESGPAVIKPSQSLSLTCIVSGFSITSSVYCWQWIRQPPGKGLEWMGRICYDGSVDYSPSITSRGTISRDTSLNKVFFQLSSVTNEDTAMYYCSRENHIDYYDTTYPSFDVWGAGTTVTVSS
VL: DIVLTQSPASLIVSLGQRATISCRASKSVNEYGYTYMHWYQQKPGLPPKLLIYLASNLDSGVPARFSGSGSGTDFTLNIHPVEEEDAATYYCQHSRELPYTFGGGTKLEIKR
- signal at 492 nm [1]: 0.0751 OD 492 nm
- signal at 492 nm [2]: 0.0731 OD 492 nm
- signal at 492 nm [3]: 1.04 OD 492 nm
- signal at 492 nm [4]: 0.132 OD 492 nm
- signal at 492 nm [5]: 0.0729 OD 492 nm
